{"source": "paper PMC7059301", "target": "Aspergillus niger α-xylosidase AxlA (Aspergillus niger)", "assay": "crystal structure", "data": [{"substance": "Aspergillus niger α-xylosidase AxlA (enzyme)", "values": [{"measurement": "stoichiometry N", "value": 4}]}]}
